Reference: the supplement of paper PMC10724198
± gives the standard deviation of the averaged measurements.

What was measured:
Saccharomyces cerevisiae [1] = test: protein stability index of tFT-peptide fusion (C-terminal peptide) (PSI (0-1 scale)); higher = more stable (slower turnover)
Method: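 MPS profiling in S. cerevisiae of the tFT-X12 degron library: putative degron peptides plus stable controls, 12 aa, fused to the C-terminus of a sfGFP-mCherry timer. Cells are FACS-sorted into 8 mCherry/sfGFP bins and deep-sequenced. PSI runs from 0 (unstable) to 1 (stable). Backgrounds are wild type, das1Δ and doa10Δ at 30 °C, and wild type, das1Δ, cdc34-1 and cdc53-1 at 37 °C; 2-3 technical replicates each.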

Saccharomyces cerevisiae [2] = test: as above; conditions: genetic background: wild type; temperature: 30 C
[3] = genetic background: cdc34-1, temperature: 37 C
[4] = genetic background: cdc53-1, temperature: 37 C
[5] = genetic background: das1 deletion, temperature: 30 C
[6] = genetic background: das1 deletion, temperature: 37 C
[7] = genetic background: doa10 deletion, temperature: 30 C
[8] = genetic background: wild type, temperature: 30 C
[9] = genetic background: wild type, temperature: 37 C
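Also: PSI is a weighted mean of sequencing reads over stability bins, variants kept only with over 10 reads, mCherry proximal and sfGFP distal, peptide attached via GGGS linker.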

Sequence | protein stability index (Saccharomyces cerevisiae [1]; [3]) | protein stability index (Saccharomyces cerevisiae [1]; [4]) | protein stability index (Saccharomyces cerevisiae [1]; [5]) | protein stability index (Saccharomyces cerevisiae [1]; [6]) | protein stability index (Saccharomyces cerevisiae [1]; [7]) | protein stability index (Saccharomyces cerevisiae [1]; [8]) | protein stability index (Saccharomyces cerevisiae [1]; [9]) | protein stability index (Saccharomyces cerevisiae [2])
CVIVCVLVWGRA | 0.156 ± 0.025 | 0.269 ± 0.062 | 0.17 ± 0.046 | 0.329 ± 0.0095 | 0.152 ± 0.0045 | 0.172 ± 0.026 | 0.326 ± 0.013 | 0.24 ± 0.011
CVMWFLLSAYYL | 0.358 ± 0.019 | 0.4288 ± 0.0029 | 0.265 ± 0.037 | 0.4336 ± 0.002 | 0.285 ± 0.013 | 0.267 ± 0.042 | 0.457 ± 0.042 | 0.386 ± 0.061
CVPAPCGRASCR | 0.697 ± 0.013 | 0.7301 ± 0.0034 | 0.64 ± 0.041 | 0.743 ± 0.0076 | 0.63 ± 0.0079 | 0.658 ± 0.018 | 0.706 ± 0.022 | 0.698 ± 0.016
CYSLLFVSVILF | 0.123 ± 0.091 | 0.158 ± 0.036 | 0.151 ± 0.015 | 0.271 ± 0.023 | 0.135 ± 0.01 | 0.138 ± 0.021 | 0.248 ± 0.0038 | 0.218 ± 0.023
CYVFLCGSFVFV | 0.446 ± 0.011 | 0.499 ± 0.0084 | 0.36 ± 0.036 | 0.551 ± 0.014 | 0.317 ± 0.0068 | 0.351 ± 0.023 | 0.515 ± 0.012 | 0.471 ± 0.037
DFLSGRCIFFYV | 0.702 ± 0.029 | 0.797 ± 0.009 | 0.6451 ± 0.0058 | 0.762 ± 0.016 | 0.243 ± 0.014 | 0.277 ± 0.029 | 0.512 ± 0.011 | 0.445 ± 0.0099
DFRGVSVIRHQV | 0.615 ± 0.065 | 0.7327 ± 0.0024 | 0.64 ± 0.015 | 0.7366 ± 0.0065 | 0.126 ± 0.0098 | 0.147 ± 0.018 | 0.308 ± 0.052 | 0.179 ± 0.047
DRTRLFLLLIIA | 0.179 ± 0.0023 | 0.256 ± 0.038 | 0.202 ± 0.028 | 0.4013 ± 0.0035 | 0.139 ± 0.0068 | 0.165 ± 0.016 | 0.273 ± 0.019 | 0.246 ± 0.042
DTHSRARAVLIA | 0.656 ± 0.0091 | 0.719 ± 0.015 | 0.585 ± 0.016 | 0.704 ± 0.01 | 0.2366 ± 0.002 | 0.301 ± 0.019 | 0.509 ± 0.04 | 0.389 ± 0.086
DYARAWRTEVVC | 0.393 ± 0.046 | 0.448 ± 0.025 | 0.328 ± 0.021 | 0.525 ± 0.016 | 0.288 ± 0.015 | 0.332 ± 0.017 | 0.5088 ± 0.0024 | 0.424 ± 0.01
EFEIALTLIRSI | 0.665 ± 0.026 | 0.733 ± 0.0039 | 0.593 ± 0.01 | 0.726 ± 0.011 | 0.304 ± 0.009 | 0.361 ± 0.055 | 0.572 ± 0.031 | 0.49 ± 0.057
EFFILYFFLKVL | 0.195 ± 0.007 | 0.274 ± 0.0064 | 0.21 ± 0.03 | 0.393 ± 0.0076 | 0.104 ± 0.01 | 0.116 ± 0.023 | 0.179 ± 0.0019 | 0.199 ± 0.021
EFVACFRLLVHG | 0.3077 ± 0.003 | 0.368 ± 0.04 | 0.278 ± 0.021 | 0.441 ± 0.012 | 0.2322 ± 0.0015 | 0.269 ± 0.027 | 0.4091 ± 0.0033 | 0.392 ± 0.014
EGLCCGAYFLVF | 0.695 ± 0.038 | 0.7228 ± 0.00076 | 0.584 ± 0.034 | 0.709 ± 0.0098 | 0.558 ± 0.014 | 0.587 ± 0.035 | 0.6751 ± 0.0057 | 0.571 ± 0.14
EGLDVRILIQVI | 0.0334 ± 0.016 | 0.0735 ± 0.0072 | 0.179 ± 0.025 | 0.197 ± 0.0041 | 0.1362 ± 0.0008 | 0.164 ± 0.025 | 0.154 ± 0.019 | 0.294 ± 0.0068
EKTKRGLIQRVV | 0.68 ± 0.064 | 0.721 ± 0.012 | 0.641 ± 0.021 | 0.693 ± 0.015 | 0.247 ± 0.016 | 0.293 ± 0.046 | 0.554 ± 0.025 | 0.3931 ± 0.0028
ESRRGILFIYIN | 0.325 ± 0.049 | 0.601 ± 0.027 | 0.475 ± 0.025 | 0.647 ± 0.038 | 0.0808 ± 0.028 | 0.0867 ± 0.0055 | 0.0749 ± 0.024 | 0.13 ± 0.005
ETCFSFVCSVQC | 0.328 ± 0.013 | 0.325 ± 0.025 | 0.284 ± 0.036 | 0.4019 ± 0.0023 | 0.221 ± 0.012 | 0.281 ± 0.02 | 0.385 ± 0.0093 | 0.398 ± 0.0044
EVFLARKRSMVV | 0.593 ± 0.043 | 0.677 ± 0.058 | 0.537 ± 0.036 | 0.67627 ± 0.00012 | 0.175 ± 0.019 | 0.214 ± 0.015 | 0.418 ± 0.0088 | 0.341 ± 0.03
